The source of these data is patent US20240158503A1 (PIERRE FABRE MEDICAMENT, published 2024).

One may read the EC50 as the concentration needed to bring the measured effect to its halfway point. A low value points to higher potency in that assay. A word on the IC50: it is the concentration that gives 50% inhibition. Low values mean inhibition by little substance, high ones a need for much substance.

The target of test [1] is T1, human VSIG4 overexpressed on HEK293E cells (human, UniProt Q9Y279 20-399).
T1 construct: whole, on cells; also called hVSIG4/HEK293E; huVSIG4
The test can be described thus: flow cytometry on HEK293E cells expressing human VSIG4, antibody titration. A general note: In flow cytometry, cells or beads pass a laser one at a time.

Test [2] concerns the target T2, human His-tagged VSIG4 short isoform (K00400002-BR1-117) (human, UniProt Q9Y279 20-283).
T2 construct: also called hVSIG4-His (short form); not shown: His tag (detected with anti-6His)
The test can be described thus: HTRF competition: His-tagged VSIG4 short isoform with C3b-d2. (Time-resolved FRET reads energy transfer from a long-lived donor to a nearby acceptor.)

Test [3] addresses T3, hVSIG4(S)-hFc (VSIG4(S)-Fc) (human).
T3 construct: also called hVSIG4 short-hFc (S); VGIG4(S)-Fc
The test can be described thus: western blot, 100 ng hVSIG4 short-hFc. (In general: Immunoblotting shows a protein as a band on a membrane.)

For test [4], the target named is T2, human His-tagged VSIG4 short isoform …. The test can be described thus: HTRF competition: His-tagged VSIG4 short isoform with iC3b.
Test [5] concerns the target T4, VSIG4-M7-Fc (human).
T4 construct: 78; Leader left out; 79
The experiment in a line: scFv-phage ELISA on coated Fc fusion (100 ng/well).

The target in test [6] is T5, VSIG4-M8-Fc (human).
T5 construct: 81; Leader left out; 82
The experiment in a line: scFv-phage ELISA on coated Fc fusion (100 ng/well).

Test [7] has as its target T6, VSIG4-M6-Fc (human).
T6 construct: 75; Leader left out; 76
The experiment in a line: scFv-phage ELISA on coated Fc fusion (100 ng/well), anti-M13-HRP, A490.

Test [8] addresses T7, VSIG4-M5-Fc (human).
T7 construct: 72; Leader left out; 73
Described as above.

The target in test [9] is T8, hVSIG4-Fc (long VSIG4 form, epitope-mapping construct) (human).
T8 construct: 55
Described as above.

Test [10] addresses T9, VSIG4-M3-Fc (human).
T9 construct: 66; Leader left out; 67
The description is as above.

Test [11] has as its target T10, VSIG4-M1-Fc (human).
T10 construct: Short form carrying E24T, V25A, E27H, V29L, T30A; Structure [LS]-QGAVGA-[VSIG4]-LAASAAS-[FC], leader left out; 61
The test is described as above.

Test [12] addresses T11, VSIG4-M4-Fc (human).
T11 construct: 69; Leader left out; 70
Described as above.

Test [13] addresses T12, hVSIG4-V-Fc (short VSIG4 form, epitope-mapping construct) (human).
T12 construct: 58; All M1-M8 mutations were made in this short form
The test is described as above.

Test [14] concerns the target T13, VSIG4-M2-Fc (human).
T13 construct: 63; Leader left out; 64
The test is described as above.

Test [15] concerns the target T5, VSIG4-M8-Fc. The description is as above.

B1: SA2297 (full-length human anti-VSIG4 monoclonal antibody, IgG form) (antibody, V domains shown)
VH: QVQLVESGGGVVQPGGSLRLSCAASGFIFSDYYMSWVRQAPGKGLEWVSYISPSGYTISYADSVKGRFTISRDNSKNSLYLQMNSLRAEDTAVYYCARRFSSSWSGYFDYWGHGALVTVSS
VL: DIQMTQSPSTLSASVGDRVTITCRASQNINRWLAWYQQKPGKAPKLLIYKAFRLHSGVPSRFSGSGSGTEFTLTITSLQPDDFATYYCQQYLSYSSSIFGQGTKVEIK
notes: also called Mab SA2297
As for B1, the response in test [1] was half-maximal at 1.18 nM (EC50). Moreover, the results for the IC50 in test [2] and in test [4] were 16.4 nM and 17.9 nM, respectively. Moreover, the binding result in [3] is “binds”.

B2: SA2297 scFv-phage (original scFv version of SA2297) (scFv, V domains shown)
VH: QVQLVESGGGVVQPGGSLRLSCAASGFIFSDYYMSWVRQAPGKGLEWVSYISPSGYTISYADSVKGRFTISRDNSKNSLYLQMNSLRAEDTAVYYCARRFSSSWSGYFDYWGHGALVTVSS
VL: DIQMTQSPSTLSASVGDRVTITCRASQNINRWLAWYQQKPGKAPKLLIYKAFRLHSGVPSRFSGSGSGTEFTLTITSLQPDDFATYYCQQYLSYSSSIFGQGTKVEIK
As for B2, the binding result in test [5] is on record as “no binding”; in test [6], “no binding”; in test [7] it was “binds”; in [8], “binds”; in [9], “binds”; in [10], “binds”. Also, the binding result in test [11], in [12], in test [13] and in test [14] was “binds” each time.

B3: SA2281 (full-length human anti-VSIG4 monoclonal antibody, IgG form) (antibody, V domains shown)
VH: QVQLVESGGGVVQPGRSLRVSCAASGFTFSTYAMHWVRQAPGKGLEWLAVVSHDGTYKYYGDSVKGRFSISRDNSKNTLYLQMNSLRSEDTAVYYCGRHAAGSSFDYWGQGTVVTVSS
VL: DIQMTQSPSSLSASVGDRVTITCQASRDISNYLNWYQQKPGKAPKLLIYKTSNLQRGVPSRFSGSGSGTEFTLTISRLQPDDSATYYCQQSYRTPYTFGQGTKLEIK
notes: also called Mab SA2281
Molecule B3 displayed an EC50 in test [1] of 0.461 nM. Moreover, the IC50 was determined as 7.3 nM in test [2] and 9.5 nM in test [4]. Besides, in [3], the binding result is recorded as “binds”.

B4: SA2281 scFv-phage (original scFv version of SA2281) (scFv, V domains shown)
VH: QVQLVESGGGVVQPGRSLRVSCAASGFTFSTYAMHWVRQAPGKGLEWLAVVSHDGTYKYYGDSVKGRFSISRDNSKNTLYLQMNSLRSEDTAVYYCGRHAAGSSFDYWGQGTVVTVSS
VL: DIQMTQSPSSLSASVGDRVTITCQASRDISNYLNWYQQKPGKAPKLLIYKTSNLQRGVPSRFSGSGSGTEFTLTISRLQPDDSATYYCQQSYRTPYTFGQGTKLEIK
Turning to B4, the binding result in test [5] is on record as “no binding”; in test [7] it was “binds”; in test [8] it was “binds”; in test [9], “binds”; in [15], “binds”; in [10], “binds”. Further, the binding result in [11], in test [12], in test [13] and in test [14] was “binds” throughout.
